In the supplement of paper PMC12783771:
± gives the standard deviation of the averaged measurements.

B1: library; numbered along this chain (parent)
chain: MNIQIGELAKRTACPVVTIRFYEQEGLLPPPGRSRGNFRLYGEEHVERLQFIRHCRSLDMPLSDVRTLLSYRKRPDQDCGEVNMLLDEHIRQVESRIGALLELKHHLVELREACSGARPAQSCGILQGLSDCVCDTRGTTAHPSD

Tests used:
[1] = variants of: B1; experiment: sfGFP reporter fluorescence (15 h) (µM FITC); higher = higher leak; details: library round: Round 0; ligand: none
In short: (§1)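 PCR-made linear PbrR templates (Echo-normalized to 5 nM) were expressed in BL21 Star (DE3) extract (PANOx-SP) with pPbrR-sfGFP reporter plasmid and 30 μg/mL GamS. Reactions were 1 μL, Echo-assembled, with 1 µM lead chloride, 30 µM zinc acetate or no metal, incubated 15 hr at 30 °C. Endpoint sfGFP fluorescence (485/528 nm, Synergy Neo2) was converted to µM FITC via standard curves in 50 mM sodium borate pH 8.5. Up to three biological replicates.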

[2] = variants of: B1; experiment: sfGFP reporter fluorescence (15 h) (µM FITC); higher = stronger transcriptional activation; details: library round: Round 0
In short: as §1

| Variant | sfGFP reporter fluorescence [1] | sfGFP reporter fluorescence ([2]; ligand: 1 µM Pb) | sfGFP reporter fluorescence ([2]; ligand: 30 µM Zn) |
| --- | --- | --- | --- |
| MNIQIGELAKRTACPVVTIRFYEQEGLLPPPGRSRGNFRLYGEEHVERLQFIRHCRSLDMPLSDVRTLLSYRKRPDQDCGEVNMLLDEHIRQVESRIGALLELKAHLVELREACSGARPAQSCGILQGLSDCVCDTRGTTAHPSD [H105A] | 0.0623 | 0.0687 ± 0.0044 | 0.769 ± 0.086 |
| MNIQIGELAKRTACPVVTIRFYEQEGLLPPPGRSRGNFRLYGEEHVERLQFIRHCRSLDMPLSDVRTLLSYRKRPDQDCGEVNMLLDEHIRQVESRIGALLELVHHCVELREACSGARPAQSCGILQMLSDCVCDTRGTTAHPSD [K104V L107C G128M] | 0.701 ± 0.023 | 3.1 ± 0.15 | 4.118 ± 0.038 |
| MNIQIGELAKRTACPVVTIRFYEQEGLLPPPGRSRGNFRLYGEEHVERLQFIRHCRSLDMPLSDVRTLLSYRKRPDQDCGEVNMLLDEHIRQVESRIGALLELVHHCVELREACSGARPAQSCGILQILSDCVCDTRGTTAHPSD [K104V L107C G128I] | 0.483 ± 0.024 | 2.5 ± 0.27 | 3.37 ± 0.23 |
| MNIQIGELAKRTACPVVTIRFYEQEGLLPPPGRSRGNFRLYGEEHVERLQFIRHCRSLDMPLSDVRTLLSYRKRPDQDCGEVNMLLDEHIRQVESRIGALLELYHHLVELREACSGARPAQSCGILQGLSDCVCDTRGTTAHPSD [K104Y] | 0.059 ± 0.0083 | 0.113 ± 0.028 | 1.09 ± 0.13 |
| MNIQIGELAKRTACPVVTIRFYEQEGLLPPPGRSRGNFRLYGEEHVERLQFIRHCRSLDMPLSDVRTLLSYRKRPDQDCGEVNMLLDEHIRQVESRIGALLELWHHLVELREACSGARPAQSCGILQGLSDCVCDTRGTTAHPSD [K104W] | 0.0574 ± 0.0096 | 0.0795 ± 0.013 | 0.607 ± 0.096 |
| MNIQIGELAKRTACPVVTIRFYEQEGLLPPPGRSRGNFRLYGEEHVERLQFIRHCRSLDMPLSDVRTLLSYRKRPDQDCGEVNMLLDEHIRQVESRIGALLELKHHCVELREACSGARPAQSCGILQGLSDCVCDTRGTTAHPSD [L107C] | 0.491 ± 0.053 | 1.05 ± 0.062 | 2.85 ± 0.46 |
| MNIQIGELAKRTACPVVTIRFYEQEGLLPPPGRSRGNFRLYGEEHVERLQFIRHCRSLDMPLSDVRTLLSYRKRPDQDCGEVNMLLDEHIRQVESRIGALLELKHHDVELREACSGARPAQSCGILQGLSDCVCDTRGTTAHPSD [L107D] | 0.0586 ± 0.0021 | 0.0596 ± 0.0018 | 0.0579 ± 0.0026 |
| MNIQIGELAKRTACPVVTIRFYEQEGLLPPPGRSRGNFRLYGEEHVERLQFIRHCRSLDMPLSDVRTLLSYRKRPDQDCGEVNMLLDEHIRQVESRIGALLELKHHEVELREACSGARPAQSCGILQGLSDCVCDTRGTTAHPSD [L107E] | 0.05882 ± 0.00026 | 0.0746 ± 0.0096 | 0.288 ± 0.054 |
| MNIQIGELAKRTACPVVTIRFYEQEGLLPPPGRSRGNFRLYGEEHVERLQFIRHCRSLDMPLSDVRTLLSYRKRPDQDCGEVNMLLDEHIRQVESRIGALLELKHHAVELREACSGARPAQSCGILQGLSDCVCDTRGTTAHPSD [L107A] | 0.514 ± 0.0098 | 1.97 ± 0.12 | 2.84 ± 0.79 |
| MNIQIGELAKRTACPVVTIRFYEQEGLLPPPGRSRGNFRLYGEEHVERLQFIRHCRSLDMPLSDVRTLLSYRKRPDQDCGEVNMLLDEHIRQVESRIGALLELKHALVELREACSGARPAQSCGILQGLSDCVCDTRGTTAHPSD [H106A] | 0.0596 ± 0.0034 | 0.0667 ± 0.00052 | 0.213 ± 0.02 |
| MNIQIGELAKRTACPVVTIRFYEQEGLLPPPGRSRGNFRLYGEEHVERLQFIRHCRSLDMPLSDVRTLLSYRKRPDQDCGEVNMLLDEHIRQVESRIGALLELVHHAVELREACSGARPAQSCGILQGLSDCVCDTRGTTAHPSD [K104V L107A] | 0.166 ± 0.0088 | 0.817 ± 0.042 | 2.18 ± 0.12 |
| MNIQIGELAKRTACPVVTIRFYEQEGLLPPPGRSRGNFRLYGEEHVERLQFIRHCRSLDMPLSDVRTLLSYRKRPDQDCGEVNMLLDEHIRQVESRIGALLELVHHCVELREACSGARPAQSCGILQGLSDCVCDTRGTTAHPSD [K104V L107C] | 0.184 ± 0.0062 | 1.13 ± 0.23 | 2.31 ± 0.5 |
| MNIQIGELAKRTACPVVTIRFYEQEGLLPPPGRSRGNFRLYGEEHVERLQFIRHCRSLDMPLSDVRTLLSYRKRPDQDCGEVNMLLDEHIRQVESRIGALLELKHHCVELREACSGARPAQSCGILQMLSDCVCDTRGTTAHPSD [L107C G128M] | 3.17 ± 0.33 | 3.98 ± 0.14 | 4.14 ± 0.45 |
| MNIQIGELAKRTACPVVTIRFYEQEGLLPPPGRSRGNFRLYGEEHVERLQFIRHCRSLDMPLSDVRTLLSYRKRPDQDCGEVNMLLDEHIRQVESRIGALLELKHHCVELREACSGARPAQSCGILQILSDCVCDTRGTTAHPSD [L107C G128I] | 1.34 ± 0.036 | 3.12 ± 0.11 | 4.14 ± 0.064 |
